Assay results taken from patent US7700329B2, “Methods for making simvastatin and intermediates” (priority 2003, dated 2010).
Values after ≈ are worked out from the molar mass of the structure shown. Each block holds one molecule with its values, some of them ahead of it.

Key:
[1] = physchem; details: pH 9.5
[2] = pH 8
[3] = Heat pre-treatment of lovastatin esterase, then lovastatin hydrolysis; assay type: biochemical; details: 60° C. for 30 min, centrifuged, supernatant used
Source text: Heat treatment has often been used as a convenient method to purify crude enzyme preparations when there is differential thermal stability between the desired enzyme and other contaminating proteins.

[4] = Enzyme screen for hydrolysis of simvastatin; assay type: biochemical; details: 2.5 mM substrate, 100 mM phosphate buffer/co-solvent pH 7 to 8, 30° C., 48 h; confirmed at 1 mM
Procedure: (§1) Any method for screening for enzymes for use in the methods of the invention, e.g., enzymes for the hydrolysis of lovastatin, lovastatin acid, 4-acetyl simvastatin or simvastatin, can be used, and, these methods are well known in the art. For example, in one exemplary set of screen conditions used to determine an enzyme(s) to be used in a method of the invention comprises use of 2.5 mM substrate, 100 mM phosphate buffer/co-solvent pH 7 to pH 8, 30° C., 48 h, with the following composition: (i) lovastatin or simvastatin in MTBE/buffer, (ii) lovastatin or simvastatin in toluene/buffer, (iii) lovastatin acid or simvastatin acid in 10% methanol/buffer. Screen results were confirmed at 1 mM substrate. […] SEQ ID NO:4 and SEQ ID NO:2 were further evaluated at 25, 50 and 100 mM lovastatin acid in 10% MeOH/buffer, pH 9, the more soluble lovastatin acid being used as substrate for convenience.

[5] = Enzyme screen for hydrolysis of lovastatin or lovastatin acid; assay type: biochemical; details: 2.5 mM substrate, 100 mM phosphate buffer/co-solvent pH 7 to 8, 30° C., 48 h; confirmed at 1 mM
Procedure: as §1

[6] = Comparison of genomic clones for hydrolysis of lovastatin acid under standard conditions; assay type: biochemical; details: same total protein concentration or same activity normalized against MUB
Source text: Genomic clones comprising sequences encoding enzymes having sequences as set forth in SEQ ID NO:4, SEQ ID NO:2, SEQ ID NO:6 (e.g., encoded by exemplary SEQ ID NO:3, SEQ ID NO:1, and SEQ ID NO:5, respectively), were compared for the hydrolysis of lovastatin acid under standard conditions (the same total protein concentration, or the same enzyme activity normalized against the fluorescent substrate, methylumbelliferyl butyrate (MUB)).

[7] = Large-scale hydrolysis of lovastatin, specific activity of esterase; assay type: biochemical; details: 100 g scale, 0.5 M lovastatin
Procedure: The in situ hydrolysis of lovastatin with SEQ ID NO:4 was optimized such that insignificant amounts of NaCl generated: 0.85 g lovastatin in MeOH and equimolar NaOH added. Clarified lysate of E. coli containing SEQ ID NO:4 was added to lovastatin acid. […] See FIG. 27 for an illustration summary of the results.
The results of Response Surface Analysis (RSA) can be applied to large-scale hydrolysis of lovastatin, e.g., using a protocol as illustrated in FIG. 28: • Reaction performed successfully on 100 g scale (0.5 M); • 97.5% conversion in 27 h; • Productivity: x g/g esterase/h; • Specific activity: 0.084 μmol/mg esterase/min.

Molecule: C[C@H]1C=C2C=C[C@H](C)[C@H](CC[C@@H](O)C[C@@H](O)CC(=O)O)C2[C@@H](O)C1 (stereo partly drawn) [Triol acid]
solubility [1]: ~200 mM (≈ 67.7 mg/mL)

elimination [2]: 13%
Molecule: CCC(C)(C)C(=O)O[C@H]1C[C@@H](C)C=C2C=C[C@H](C)[C@H](CC[C@@H]3C[C@@H](OC(C)=O)CC(=O)O3)[C@H]21 [4-acetyl simvastatin]

activity of heat pre-treated versus untreated enzyme [3]: no difference in activity | activity for the hydrolysis of simvastatin [4]: showed activity | activity for the hydrolysis of lovastatin or lovastatin acid [5]: active
B1: SEQ ID NO:4: novel lovastatin esterase, family VII esterase with SXXK motif, encoded by SEQ ID NO:3 (protein)
chain: MEIHGTCDPKFHLVRQEFERNLRERGEVGASVCVTLHGETVVDLWGGMARADTQTPWTAETVSIVFSSTKGATALCAHMLASRGQLDLDAPVATYWPEFAQAGKARIPVKMLLNHQAGLPAVRTPLPQGAYADWELMVNTLAKEEPFWEPGTRNGYHALTMGWLVGEVVRRVSGKSLGTFFQEEIARPLGLDFWIGLPAEQEARVAPMIAAEPDPQSLFFQEVAKPGALQSLVLLNSGGYMGAQPEYDSRAAHAAEIGAAGGITNARGLAGMYAPLACGGKLKGVELVSPDMLARMSRVASATGRDAVLMMPTRFALGFMKSMDNRREPAGVQDSALFGEEAFGHVGAGGSFGFADPKAGMSFGYTMNRMGLGAGLNPRGQSLVDATYRSLGYQSDASGAWT
modifications: Unkown; Soil sample
activity for hydrolysis of lovastatin acid compared among genomic clones [6]: best activity | Specific activity [7]: 0.084 μmol/mg esterase/min

activity for the hydrolysis of lovastatin or lovastatin acid [5]: active
B2: SEQ ID NO:6: feruloyl esterase encoded by SEQ ID NO:5 (protein)
chain: MRSAARISVAAVAFLCLLLTTRVSAQIVPAMECADLANQQLPNTTITSAQTVTTGSLTPPGSTNPITDLPPFCRVTGAIAPTSESHILFEVWLPLDKWNGKFAGVGNGGWAGIISFGALGSQLKRGYATASTNTGHEAAPGMNAARFAFEKPEQLIDFAYRSQHETALKAKALVQAFYGKPPEHSYFIGCSSGGYQGLMEAQRFPADYDGIVAGMPANNWTRLMAGDLDAILAVSVDPASHLPVSALGLLYRSVLAACDGIDGVVDGVLEDPRRCRFDPAVLMCKADQNPDGCLTPAQVEAARRIYGGLKDPKTGAQLYPGLAPGSEPFWPHRNPANPFPIPIAHYKWLVFADPNWDWRTFKFTDPADYQAFLNAEATYAPTLNATNPDLREFSRRGGRLIQYHGWNDQLIAPQNSIDYYESVLSFFGSGKQDRAQTVREVQSFYRLFMAPGMAHCGGGTGPNSFDMLDALEKWVEGGIAPERVLATRSINGVVDRLRPLCPYPQVAVYKGHGDTNDAANFVCRD
modifications: Unkown; Soil sample

activity for the hydrolysis of lovastatin or lovastatin acid [5]: active
B3: SEQ ID NO:2: feruloyl esterase encoded by SEQ ID NO:1 (protein)
chain: MSLCVIRFIAGTLVLVASVESAVAQQACADLMGLELPYTTITSAAVATEGPIPQPAIFGSTDPIVAPERCEVRAVTRPTKDSEIRIELWLPLSGWNGKYLQIGSGGWAGSINRTGLIGPLQRGYAVAATDNGHISEGLVPDASWAIGHPQKLIDFGYRAVHETSVQAKAILRAYFGRGQDLSYFSGCSNGGREALMEAQRYPEDFEGIIAGAPANNWSRLFTGFVWNERALADDPIPPAKLTAIQAAAIAACDTLDGVEDGLIENPRACSFDPRSMVCTADDASDCLTEGQVATLHRIYSGPTNPRTGERIFPGYPMGTEAVPGGWVPWIVSASSEVPSIQASFGNSYYGHAVFEQSNWDFRTLDFDQDVAFGDAKAGPVLNATNPDLRSFRANGGKLIQYHGWGDAAITAFSSIDYYENVRAFLDRFPDPRSENTDIDGFYRLFLVPGMGHCSGGIGPSSFGNGFRSARTDAEHDLLSALEAWVERDTAPERLIGTGTAVGDPTATLTRPLCPYPRTARYLGSGNSNDAANFECALPAGVQ
modifications: Unkown; Soil sample
